Values of other authors in publication PMC11750407.

Target: coagulation factor Xa (Homo sapiens) (UniProt P00742)
Chain of UniProt P00742 (P00742 41-179, chain 1 of 2): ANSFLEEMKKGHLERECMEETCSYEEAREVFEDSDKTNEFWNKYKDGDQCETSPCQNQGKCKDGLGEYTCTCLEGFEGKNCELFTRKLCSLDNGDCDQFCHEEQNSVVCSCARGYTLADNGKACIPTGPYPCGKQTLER
Chain of UniProt P00742 (P00742 235-488, chain 2 of 2): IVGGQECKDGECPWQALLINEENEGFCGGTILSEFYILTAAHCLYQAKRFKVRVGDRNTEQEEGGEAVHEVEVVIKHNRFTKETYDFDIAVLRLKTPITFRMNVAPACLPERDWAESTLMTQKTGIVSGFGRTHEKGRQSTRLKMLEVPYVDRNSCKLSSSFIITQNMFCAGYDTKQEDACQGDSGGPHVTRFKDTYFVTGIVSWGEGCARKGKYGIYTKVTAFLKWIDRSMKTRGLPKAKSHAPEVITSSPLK

Kd: 1000 nM
Substance: coagulation factor Va (from UniProt P12259)
